From IntAct's records for PubMed 16619024

B1: Translocon at the outer membrane of chloroplasts 64 (Pisum sativum (Garden pea)), Q9MUK5 (parent)
chain: MKSMASPSSQIWVILGLGLAGIYVLTRKLTQAVKEDFGAFLLKLKLLPPPPPAPPKAPHPLSSLNFAISDIFDIEGHVSTFGHPEWARTHEPASSTASAVSALVESGATCIGTTVVDELAYGISGENKHFGTPTNPAVPNRVPGGSSSGAAVAVAANFVDFSLGVDTSGGVRVPAGFCGILGFRPSHGAVSHVGIIPVSTSLDTVGWFAKDPDVLRRVGHILLQAPFVMQRNPRQIIIADDCFQHLNVPLDRTSQVVIKATEKLFGKQVLKHINFEDYISSKVSSLKACSIQKSNGVLKSSSLKLLANVMQSLQRHEFEHTHSEWMSIVKPDLHPAVSAQLHEKFEVSELEIENSKSVRSELRVAVNSLLKDEGVLVIPTVADPPPKLGGKEFLSHDYQSRALSLLSIASISGCCQVTVPLGFFDKNPVSVSLIARHGGDRFLLDTLKTMYTVLQEQADIAAPSKSSKSVVSKEQSAEISKEKGNQAYKDKQWQKAIGFYTEAIKLCGNNATYYSNRAQAYLELGSYLQAEEDCTTAISFDKKNVKAYFRRGTAREMLGYYKEAIDDFKYALVLEPTNKRAASSAERLRKLFQ

Variants of: B1
Conditions: with hs704_arath HSP70-4, Q9LHA8

effect of a mutation on the interaction | Variant
decreasing interaction | MKSMASPSSQIWVILGLGLAGIYVLTRKLTQAVKEDFGAFLLKLKLLPPPPPAPPKAPHPLSSLNFAISDIFDIEGHVSTFGHPEWARTHEPASSTASAVSALVESGATCIGTTVVDELAYGISGENKHFGTPTNPAVPNRVPGGSSSGAAVAVAANFVDFSLGVDTSGGVRVPAGFCGILGFRPSHGAVSHVGIIPVSTSLDTVGWFAKDPDVLRRVGHILLQAPFVMQRNPRQIIIADDCFQHLNVPLDRTSQVVIKATEKLFGKQVLKHINFEDYISSKVSSLKACSIQKSNGVLKSSSLKLLANVMQSLQRHEFEHTHSEWMSIVKPDLHPAVSAQLHEKFEVSELEIENSKSVRSELRVAVNSLLKDEGVLVIPTVADPPPKLGGKEFLSHDYQSRALSLLSIASISGCCQVTVPLGFFDKNPVSVSLIARHGGDRFLLDTLKTMYTVLQEQADIAAPSKSSKSVVSKEQSAEISKEKGNQAYKDKQWQKAIGFYTEAIKLCGNNATYYSNRAQAYLELGSYLQAEEDCTTAISFDKKNVKAYFARGTAREMLGYYKEAIDDFKYALVLEPTNKRAASSAERLRKLFQ [R550A]
